The record followed here is article PMC10883291.

In assay [1] the target is FcγR3A (CD16aV158) (human). Nature of the assay: FRET or BRET; time-resolved FRET (Cisbio); FcγRs expressed on HEK293 cells (Tb donor cells); IgG-d2 acceptor conjugate displaced by the test antibodies; EC50 by the manufacturer's protocol.
Assay [2] deals with FcγR2A (CD32aR131) (human). The description is as above.
Assay [3] deals with SIRPα variant 4 Fc (haplotype v4 ESK) (human) (UniProt P78324). Nature of the assay: BLI; Octet, under affinity conditions; SIRPα variants 1-6 Fc captured on anti-human capture tips, dipped into 50 nmol/L BMS-986351-Fab; association 180 s, dissociation 180 s; 2 x 10^-4 is the limit of koff that can be confidently assigned.
Sequence of SIRPα variant 4 Fc (haplotype v4 ESK) (human) (P78324 other isoform, or with tags, fused parts or gaps, change not shown): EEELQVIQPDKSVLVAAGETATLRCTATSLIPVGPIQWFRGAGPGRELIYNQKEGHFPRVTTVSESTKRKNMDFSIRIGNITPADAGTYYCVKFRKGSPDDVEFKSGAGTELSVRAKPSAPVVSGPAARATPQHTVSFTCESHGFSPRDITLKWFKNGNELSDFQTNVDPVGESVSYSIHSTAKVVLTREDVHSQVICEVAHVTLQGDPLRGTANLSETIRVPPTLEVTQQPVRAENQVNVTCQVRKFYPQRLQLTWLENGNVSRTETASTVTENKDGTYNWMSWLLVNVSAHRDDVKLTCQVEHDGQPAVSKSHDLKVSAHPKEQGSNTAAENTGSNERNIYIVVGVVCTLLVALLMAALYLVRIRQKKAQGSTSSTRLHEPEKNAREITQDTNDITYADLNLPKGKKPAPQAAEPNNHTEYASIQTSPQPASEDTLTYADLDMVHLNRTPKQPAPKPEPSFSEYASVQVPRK
The target in assay [4] is SIRPα variant 5 Fc (haplotype v5 EPN) (human) (UniProt P78324). The assay is described as above.
Sequence of SIRPα variant 5 Fc (haplotype v5 EPN) (human) (P78324 other isoform, or with tags, fused parts or gaps, change not shown): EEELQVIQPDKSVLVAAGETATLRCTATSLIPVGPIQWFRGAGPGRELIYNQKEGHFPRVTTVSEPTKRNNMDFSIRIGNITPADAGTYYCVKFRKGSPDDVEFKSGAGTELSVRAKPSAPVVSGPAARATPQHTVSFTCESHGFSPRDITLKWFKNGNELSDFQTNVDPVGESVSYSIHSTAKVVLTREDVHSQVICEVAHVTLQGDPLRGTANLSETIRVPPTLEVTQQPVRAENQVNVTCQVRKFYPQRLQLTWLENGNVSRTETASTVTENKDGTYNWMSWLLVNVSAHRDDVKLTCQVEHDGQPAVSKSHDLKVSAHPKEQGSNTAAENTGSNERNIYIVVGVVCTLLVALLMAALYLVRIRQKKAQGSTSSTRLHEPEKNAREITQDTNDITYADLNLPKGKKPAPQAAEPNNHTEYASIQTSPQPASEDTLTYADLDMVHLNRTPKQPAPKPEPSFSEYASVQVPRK
The target of assay [5] is SIRPα variant 3 Fc (haplotype v3 DLE) (human) (UniProt P78324). Described as above.
Sequence of SIRPα variant 3 Fc (haplotype v3 DLE) (human) (P78324 other isoform, or with tags, fused parts or gaps, change not shown): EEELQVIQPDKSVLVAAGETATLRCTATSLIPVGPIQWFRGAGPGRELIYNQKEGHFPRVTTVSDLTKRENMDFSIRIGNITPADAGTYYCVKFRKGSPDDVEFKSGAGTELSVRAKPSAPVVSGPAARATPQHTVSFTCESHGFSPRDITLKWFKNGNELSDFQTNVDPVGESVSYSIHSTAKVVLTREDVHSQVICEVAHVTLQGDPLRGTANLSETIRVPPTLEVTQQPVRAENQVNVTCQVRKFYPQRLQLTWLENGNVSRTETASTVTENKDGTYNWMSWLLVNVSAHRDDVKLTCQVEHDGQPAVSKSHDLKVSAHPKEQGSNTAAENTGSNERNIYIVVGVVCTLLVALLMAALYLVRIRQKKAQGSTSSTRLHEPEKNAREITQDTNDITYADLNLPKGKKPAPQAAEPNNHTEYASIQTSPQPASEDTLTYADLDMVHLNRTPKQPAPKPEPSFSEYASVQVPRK
Assay [6] has as its target SIRPα variant 6 Fc (haplotype v6 ELE) (human) (UniProt P78324). The assay is described as above.

Sequence of SIRPα variant 6 Fc (haplotype v6 ELE) (human) (P78324 other isoform, or with tags, fused parts or gaps, change not shown): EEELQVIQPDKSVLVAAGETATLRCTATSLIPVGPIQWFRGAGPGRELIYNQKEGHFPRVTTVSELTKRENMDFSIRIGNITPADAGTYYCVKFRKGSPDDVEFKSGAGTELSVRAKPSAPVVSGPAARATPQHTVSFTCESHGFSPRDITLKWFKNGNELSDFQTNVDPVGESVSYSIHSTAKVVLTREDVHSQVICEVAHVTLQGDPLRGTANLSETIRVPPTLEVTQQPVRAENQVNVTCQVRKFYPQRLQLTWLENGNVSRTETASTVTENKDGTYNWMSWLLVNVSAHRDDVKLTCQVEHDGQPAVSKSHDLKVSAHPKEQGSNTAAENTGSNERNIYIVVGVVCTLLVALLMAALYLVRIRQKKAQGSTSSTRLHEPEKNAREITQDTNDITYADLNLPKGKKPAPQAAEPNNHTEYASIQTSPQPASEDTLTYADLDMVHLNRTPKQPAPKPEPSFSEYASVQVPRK
Sequence of FcγR2A (CD32aR131) (human) (P12318 34-317 H167R): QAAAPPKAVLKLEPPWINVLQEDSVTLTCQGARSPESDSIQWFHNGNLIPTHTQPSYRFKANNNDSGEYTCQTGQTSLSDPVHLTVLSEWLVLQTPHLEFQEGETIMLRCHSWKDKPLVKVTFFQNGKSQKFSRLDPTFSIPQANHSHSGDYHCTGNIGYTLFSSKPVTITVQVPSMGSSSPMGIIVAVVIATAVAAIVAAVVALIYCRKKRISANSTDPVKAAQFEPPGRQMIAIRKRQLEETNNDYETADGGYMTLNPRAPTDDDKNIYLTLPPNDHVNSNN
Sequence of FcγR3A (CD16aV158) (human) (P08637 17-254 F176V): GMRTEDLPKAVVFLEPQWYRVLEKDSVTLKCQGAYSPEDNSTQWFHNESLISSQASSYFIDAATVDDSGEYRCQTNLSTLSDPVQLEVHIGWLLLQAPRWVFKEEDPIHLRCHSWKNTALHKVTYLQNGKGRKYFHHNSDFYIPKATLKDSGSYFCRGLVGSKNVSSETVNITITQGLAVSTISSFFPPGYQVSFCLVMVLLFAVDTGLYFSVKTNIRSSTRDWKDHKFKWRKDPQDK

B1: BMS-986351 (antibody, V domains shown)
VH: QVQLVQSGAEVKKPGASVKVSCKASGYTFRGYGISWVRQAPGQGLEWMGWISAYGGETNYAQKLQGRVTMTTDTSTSTAYMELRSLRSDDTAVYYCAREAGSSWYDFDLWGRGTLVTVSS
VL: DIQMTQSPSSVSASVGDRVTITCRASQGISSWLAWYQQKPGKAPKLLIYAASNLQSGVPSRFSGSGSGTDFTLTISSLQPEDFATYYCQQGASFPITFGGGTKVEIK
For B1, the figures for the EC50 in assay [1] and in assay [2] were 795 nM and 188 nM, respectively.

B2: BMS-986351-Fab (Fab, V domains shown)
VH: B1 VH
VL: B1 VL
Regarding B2, the Kd was 1.52 nM in assay [3], 0.611 nM in assay [4], less than 0.145 nM in assay [5] and 0.183 nM in assay [6]. Further, the koff in assay [3] is 0.00228 s⁻¹; in assay [4], 0.00106 s⁻¹; in assay [5] it was less than 0.0002 s⁻¹; in assay [6], 0.000356 s⁻¹. For the same molecule, the kon in assay [3] stood at 1.5e+06 M⁻¹ s⁻¹; in assay [4], 1.73e+06 M⁻¹ s⁻¹; in assay [5], 1.38e+06 M⁻¹ s⁻¹; in assay [6] it was 1.94e+06 M⁻¹ s⁻¹.
